Laboratory results reported in article PMC8950404, “Signal Sequence-Dependent Orientation of Signal Peptide Fragments to Exosomes” (International Journal of Molecular Sciences, 2022).
Each block holds one binder with its values, some of them ahead of it.

Target: T1, recombinant human calmodulin (CALM) 1/2/3 (human, UniProt P0DP23 1-149)
T1 construct: human calmodulin, printed as calmodulin (CALM) 1/2/3; also called His-tagged CALM; source: bought: Abcam; not shown: His tag, N-terminal, kept
Assay: pull-down; hAPP SP (9–17) 500 nM mixed with N-terminally His-tagged CALM 1 μg/mL in xTractor buffer, with or without CaCl2 500 μM, overnight at 4 °C; CALM separated on a Capturem His-Tagged Purification Miniprep; bound peptides read by MALDI-TOF MS/MS
Conditions: both partners purified

binding result: binds
B1: hAPP SP (9–17) (peptide)
peptide: LLAAWTARA
notes: residues 9-17 of the signal peptide of human amyloid precursor protein (APP); also called C-terminal fragment of APP SP; source: synthetic peptide, bought: Eurofins Scientific

binding result: binds
B2: C-terminal fragment of APP SP (LAAWTARA) (peptide)
peptide: LAAWTARA
notes: stretch of the signal peptide of human amyloid precursor protein (APP), one residue shorter than hAPP SP (9–17); also called exosomal SP fragment
